Substrate in data set [1]: N[C@@H](Cc1c[nH]cn1)C(=O)O
Put plainly: (§1) Activity of human recombinant CA3 at 10 uM stopped-flow CO2 hydration method.

Substrate in data set [2]: N[C@H](Cc1c[nH]cn1)C(=O)O
Described as §1.

Substrate in data set [3]: N[C@@H](Cc1c[nH]cn1)C(=O)O
Put plainly: (§2) Activity of human recombinant truncated CA4 at 10 uM stopped-flow CO2 hydration method.

Substrate in data set [4]: N[C@H](Cc1c[nH]cn1)C(=O)O
The data set is described as §2.

B1: Carbonic anhydrase 3 (Homo sapiens), P07451 (protein)
chain: MAKEWGYASHNGPDHWHELFPNAKGENQSPVELHTKDIRHDPSLQPWSVSYDGGSAKTILNNGKTCRVVFDDTYDRSMLRGGPLPGPYRLRQFHLHWGSSDDHGSEHTVDGVKYAAELHLVHWNPKYNTFKEALKQRDGIAVIGIFLKIGHENGEFQIFLDALDKIKTKGKEAPFTKFDPSCLFPACRDYWTYQGSFTTPPCEECIVWLLLKEPMTVSSDQMAKLRSLLSSAENEPPVPLVSNWRPPQPINNRVVRASFK
B1: the kcat stood at 1.8 ×10⁴ /s in data set [1] and 16.9 ×10⁴ /s in data set [2].

B2: Carbonic anhydrase 4 (Homo sapiens), P22748 (protein)
chain: MRMLLALLALSAARPSASAESHWCYEVQAESSNYPCLVPVKWGGNCQKDRQSPINIVTTKAKVDKKLGRFFFSGYDKKQTWTVQNNGHSVMMLLENKASISGGGLPAPYQAKQLHLHWSDLPYKGSEHSLDGEHFAMEMHIVHEKEKGTSRNVKEAQDPEDEIAVLAFLVEAGTQVNEGFQPLVEALSNIPKPEMSTTMAESSLLDLLPKEEKLRHYFRYLGSLTTPTCDEKVVWTVFREPIQLHREQILAFSQKLYYDKEQTVSMKDNVRPLQQLGQRTVIKSGAPGRPLPWALPALLGPMLACLLAGFLR
For B2, the kcat in data set [3] amounted to 4.3 ×10⁶ /s; in data set [4], 3.8 ×10⁶ /s.

For the origin of these results see ChEMBL document CHEMBL1155874, “Carbonic anhydrase activators: Activation of the human cytosolic isozyme III and membrane-associated isoform IV with amino acids and amines” (Bioorg Med Chem Lett, 2008).
